Test system: PTRI20 meganuclease (engineered, pCLS17038) (artificial)
Assay: cell_activity
Conditions: P. tricornutum; 6.9% with SCTREX2 (p124); HGT up to 0.197% with donor (p171); empty vector 0

## GTTTTACGTTGTACGACGTCTAGC (double strand) [PTRI20 target]
  activity (% mutagenesis): 0.032

Source: US20160272980
